In patent US20230057847A1, “GLP2 RECEPTOR AGONISTS AND METHODS OF USE” (The Scripps Research Institute, priority 2019, published 2023):
Bridges are numbered along the chain shown (N, C = ends). Where no end group is shown, it is not given here. [ ]: non-standard residue; d: D form. Nle = CCCC[C@H](N)C(=O)O; Nva = CCC[C@H](N)C(=O)O; L5A = not defined here; A1 = not defined here; K1 = not defined here; K5 = not defined here; Aib = CC(C)(N)C(=O)O

T1: human GLP-2R (human, UniProt O95838 1-553)
T1 sequence (looked up): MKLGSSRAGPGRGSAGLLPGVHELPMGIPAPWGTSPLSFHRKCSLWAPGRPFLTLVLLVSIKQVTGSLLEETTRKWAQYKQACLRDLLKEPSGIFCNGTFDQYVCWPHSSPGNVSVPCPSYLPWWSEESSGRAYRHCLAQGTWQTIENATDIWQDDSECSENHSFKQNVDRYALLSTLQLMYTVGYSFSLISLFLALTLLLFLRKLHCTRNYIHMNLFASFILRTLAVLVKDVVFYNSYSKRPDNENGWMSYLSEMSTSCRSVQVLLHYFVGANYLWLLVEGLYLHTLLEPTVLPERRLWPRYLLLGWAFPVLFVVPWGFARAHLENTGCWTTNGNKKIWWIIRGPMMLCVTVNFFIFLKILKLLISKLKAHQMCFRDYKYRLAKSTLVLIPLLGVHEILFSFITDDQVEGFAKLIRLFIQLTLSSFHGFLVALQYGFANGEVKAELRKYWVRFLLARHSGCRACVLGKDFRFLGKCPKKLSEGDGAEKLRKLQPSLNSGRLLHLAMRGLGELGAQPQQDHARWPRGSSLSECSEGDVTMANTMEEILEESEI


What was measured:
[1] = Pharmacokinetics of peptides in mice (plasma levels by GLP-2R cell based reporter assay); conditions: mouse, in vivo
[2] = system: mouse model of environmental enteric dysfunction (EED); test: Weaning undernutrition mouse model of environmental enteric dysfunction (EED); assay type: in vivo, mice; conditions: animals weaned to CD and to RBD diet, vs untreated
Protocol: A weaning undernutrition model was used to assess the ability of GLP2-2G-10Nle-1K-EX4-K5 to treat environmental enteric dysfunction (EED). All dams were placed on an isocaloric Northeast Brazil (Regional Basic Diet—RBD), which was moderately deficient in protein, fat and minerals when their pups were 10 days old. At weaning (3 weeks of age), pups were placed on either a standard control diet (CD) or continued on RBD. At 4 weeks of age, weanlings were given drug or placebo (0.1 mg/kg formulated in PBS (vehicle)) once a day subcutaneously for 2-3 weeks. Bodyweight and food consumption were measured twice weekly. Stool was collected at weaning, 6 weeks of age, and 8 weeks of age for calorimetry and microbiome. Oral FITC-dextran was used as a measurement of barrier function. At 6 weeks of age, mice were euthanized, and jejunal tissue was collected for morphology, immunohistochemistry, and for chamber analysis of transmucosal resistance and permeability.

mouse GLP2R (mouse) = mouse GLP2R (mouse) (UniProt Q5IXF8); test: cell-based or functional assay
GIPR = test: cell-based or functional assay
GCGR = test: cell-based or functional assay
GLP-1R = test: cell-based or functional assay
[3] = target: cyno monkey GLP2R (cyno monkey) (UniProt G1E7B0); test: cell-based or functional assay
[4] = target: 168 GPCR targets (gpcrMAX Panel by DiscoverRx); test: cell-based or functional assay
human GLP-2R = target: T1, human GLP-2R; test: cell-based or functional assay

Sequence of mouse GLP2R (mouse) (Q5IXF8 whole entry): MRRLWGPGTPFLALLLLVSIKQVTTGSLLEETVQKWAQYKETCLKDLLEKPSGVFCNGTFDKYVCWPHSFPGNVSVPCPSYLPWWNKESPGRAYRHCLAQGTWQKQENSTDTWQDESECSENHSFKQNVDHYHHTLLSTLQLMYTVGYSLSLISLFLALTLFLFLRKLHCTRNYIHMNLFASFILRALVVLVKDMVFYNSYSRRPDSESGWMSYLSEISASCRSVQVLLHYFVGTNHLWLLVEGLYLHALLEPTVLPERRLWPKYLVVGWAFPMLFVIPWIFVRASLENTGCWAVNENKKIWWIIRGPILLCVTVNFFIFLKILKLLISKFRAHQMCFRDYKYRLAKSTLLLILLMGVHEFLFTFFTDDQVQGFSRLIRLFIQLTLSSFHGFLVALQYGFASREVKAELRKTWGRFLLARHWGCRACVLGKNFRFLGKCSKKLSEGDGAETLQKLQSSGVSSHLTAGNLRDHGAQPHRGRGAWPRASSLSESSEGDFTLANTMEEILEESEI

Molecule	GLP-2R - cAMP 0% FBS/nM (EC50, CRE-luciferase reporter) (human GLP-2R)	also measured
CC[C@H](C)[C@@H]1NC(=O)[C@H](Cc2ccccc2)NC(=O)[C@H](CC(=O)O)NC(=O)[C@H](CCCNC(=N)N)NC(=O)[C@H](C)NC(=O)[C@H](C)NC(=O)[C@@H](NC(=O)[C@H](CC(N)=O)NC(=O)[C@H](CC(=O)O)NC(=O)[C@H](CC(C)C)NC(=O)[C@@H](NC(=O)[C@@H](NC(=O)[C@H](CC(N)=O)NC(=O)[C@H](CCSC)NC(=O)[C@H](CCC(=O)O)NC(=O)[C@H](CC(=O)O)NC(=O)[C@H](CO)NC(=O)[C@H](Cc2ccccc2)NC(=O)[C@H](CO)NC(=O)CNC(=O)[C@H](CC(=O)O)NC(=O)CNC(=O)[C@@H](N)Cc2c[nH]cn2)[C@@H](C)O)[C@@H](C)CC)CCCCNC(=O)CN(C(=O)CCNC(=O)CCOCCOCCNC(=O)CCOCCOCCNC(=O)CC[C@H](NC(=O)CCCCCCCCCCCCCCCCC(=O)O)C(=O)O)CC(=O)NCCCC[C@@H](C(=O)N[C@@H](Cc2c[nH]c3ccccc23)C(=O)N[C@@H](CC(C)C)C(=O)N[C@H](C(=O)N[C@@H](CCC(N)=O)C(=O)N[C@H](C(=O)N[C@@H](CCCCN)C(=O)N[C@H](C(=O)N[C@H](C(=O)N[C@@H](CC(=O)O)C(=O)N2CCC[C@H]2C(=O)N[C@@H](CO)C(=O)N[C@@H](CO)C(=O)NCC(=O)N[C@@H](C)C(=O)N2CCC[C@H]2C(=O)N2CCC[C@H]2C(=O)N2CCC[C@H]2C(=O)N[C@@H](CO)C(N)=O)[C@@H](C)O)[C@@H](C)CC)[C@@H](C)O)[C@@H](C)CC)NC1=O [Conjugate 17]		half-life ([1]; 10 nmol/kg, read-out: Mouse T½/h (converted)): 8.53 ± 0.044 h; clearance ([1]; CD1 female mice, 10 nmol/kg iv or sc, read-out: Mouse CL/(mL/h/kg) (converted)): 14.4 mL/h/kg
CC[C@H](C)[C@H](NC(=O)[C@H](Cc1ccccc1)NC(=O)[C@H](CC(=O)O)NC(=O)[C@H](CCCNC(=N)N)NC(=O)[C@H](C)NC(=O)[C@H](C)NC(=O)[C@H](CC(C)C)NC(=O)[C@H](CC(N)=O)NC(=O)[C@H](CC(=O)O)NC(=O)[C@H](CC(C)C)NC(=O)[C@@H](NC(=O)[C@@H](NC(=O)[C@H](CC(N)=O)NC(=O)[C@H](CCSC)NC(=O)[C@H](CCC(=O)O)NC(=O)[C@H](CC(=O)O)NC(=O)[C@H](CO)NC(=O)[C@H](Cc1ccccc1)NC(=O)[C@H](CO)NC(=O)CNC(=O)[C@H](CC(=O)O)NC(=O)[C@H](C)NC(=O)[C@@H](N)Cc1c[nH]cn1)[C@@H](C)O)[C@@H](C)CC)C(=O)N[C@@H](CC(N)=O)C(=O)N[C@@H](Cc1c[nH]c2ccccc12)C(=O)N[C@@H](CC(C)C)C(=O)N[C@H](C(=O)N[C@@H](CCC(N)=O)C(=O)N[C@H](C(=O)N[C@@H](CCCCN)C(=O)N[C@H](C(=O)N[C@H](C(=O)N[C@@H](CC(=O)O)C(=O)O)[C@@H](C)O)[C@@H](C)CC)[C@@H](C)O)[C@@H](C)CC [GLP-2, reference compound]		length of the small intestine [2]: significant increase
Apraglutide (peptide)		IC50 [nM] (665/615 ratio, free cAMP) (mouse GLP2R (mouse)): 0.04 nM
GIP (ligand)		IC50 [nM] (665/615 ratio, free cAMP) (GIPR): 0.02 nM
GLP-2 (ligand)		IC50 [nM] (665/615 ratio, free cAMP) (GCGR): > 500 nM; IC50 [nM] (665/615 ratio, free cAMP) (GLP-1R): > 500 nM; IC50 [nM] (665/615 ratio, free cAMP) (GIPR): > 500 nM
Teduglutide (peptide)		EC50 [nM] (ratio of 665 to 615) [3]: 0.009 nM; IC50 [nM] (665/615 ratio, free cAMP) (mouse GLP2R (mouse)): 0.07 nM
HGDGSFSDEMNTILDNCAARDFICWLIQTKITDPSSGAPPPS (linker 17-24 via L5A; not fully specified; ends not checked) [Conjugate 1: GLP2-2G-1-EX4 (SEQ ID NO. 1) with staple L5A at positions 17, 24]		PathHunter beta-arrestin enzyme fragment complementation, agonist mode, % activity [4]: < 30 % activity; PathHunter beta-arrestin enzyme fragment complementation, antagonist mode, % inhibition [4]: < 35 % inhibition
HGDGSFSDELNTILDNKAARDFIKWLIQTKITDPSSGAPPPS (not fully specified; here or on the partner: Nle at 10; staple K5 (lactam) attached at positions 17, 24 (lysines)) [Conjugate 11: GLP2-2G-10Nle-1K-EX4 (SEQ ID NO. 10) with staple K5 at positions 17, 24]		PathHunter beta-arrestin enzyme fragment complementation, agonist mode, % activity [4]: < 30 % activity; PathHunter beta-arrestin enzyme fragment complementation, antagonist mode, % inhibition [4]: < 35 % inhibition
HGDGSFSDEMCTILDNLCARDFINWLIQTKITDPSSGAPPPS (linker 11-18 via L5A; ends not checked) [Conjugate 10: GLP2-2G-6-EX4 (SEQ ID NO. 9) with staple L5A at positions 11, 18]	2.09 nM	GLP-2R - cAMP 10% FBS/nM (EC50, CRE-luciferase reporter) (human GLP-2R): 102 nM
HGDGSFSDE[Nle][dF]TILDNKAARDFIKWLIQTKITDPSSGAPPPS (bridge 17-24; not fully specified (bridges); ends not checked) [Conjugate 12: GLP2-2G-10Nle-11f-1K-EX4 (SEQ ID NO. 11) with staple K5 at positions 17, 24]	2.13 nM	
HGDGSFSDE[Nle]NSLLDNKAARDFIKWLIQTKITDPSSGAPPPS (bridge 17-24; not fully specified (bridges); ends not checked) [Conjugate 13: GLP2-2G-10Nle-12S-13L-1K-EX4 (SEQ ID NO. 12) with staple K5 at positions 17, 24]	3.78 nM	
HGDGSFSDE[Nle]NTA[Nle]DNKAARDFIKWLIQTKITDPSSGAPPPS (linker 17-24 via K5; reading uncertain) [Conjugate 14: GLP2-2G-10Nle-13A-14Nle-1K-EX4 (SEQ ID NO. 13) with staple K5 at positions 17, 24]	2.68 nM	
HGDGSFSDE[Nle]NT[Nle][Nle]DNKAARDFIKWLIQTKITDPSSGAPPPS (linker 17-24 via K5; reading uncertain) [Conjugate 15: GLP2-2G-10Nle-13Nle-14Nle-1K-EX4 (SEQ ID NO. 14) with staple K5 at positions 17, 24]	1.99 nM	
HGDGSFSDE[Nle]ATA[Nle]DAKAARDFIKWLIQTKITDPSSGAPPPS (linker 17-24 via K5; reading uncertain)	1.33 nM	
HGDGSFSDEMNTILDNKAARDFIKWLIQTKITDPSSGAPPPS (bridge 17-24; not fully specified (bridges); ends not checked) [Conjugate 17: GLP2-2G-1K-EX4 (SEQ ID NO. 16) with staple K5 at positions 17, 24]	1.07 nM	
HGDGSFSDEM[dF]TILDNKAARDFIKWLIQTKITDPSSGAPPPS (linker 17-24 via K5; reading uncertain) [Conjugate 18: GLP2-2G-11f-1K-EX4 (SEQ ID NO. 17) with staple K5 at positions 17, 24]	1.41 nM	
HGDGSFSDEMNTILDNKAARDFIKWLIQTKITDPSSGAPPPS (bridge 17-24 via K1; ends not checked) [Conjugate 19: GLP2-2G-1K-EX4 (SEQ ID NO. 16) with staple K1 at positions 17, 24]	0.15 nM	
HGDGSFSDEMNTILDNKAARDFIKWLIQTKITDPSSGAPPPS (bridge 17-24 via A1; ends not checked) [Conjugate 20: GLP2-2G-1K-EX4 (SEQ ID NO. 16) with staple A1 at positions 17, 24]	0.09 nM	
HGDGSFSDKMNTILDKLAARDFINWLIQTKITDPSSGAPPPS (bridge 9-16; not fully specified (bridges); ends not checked) [Conjugate 23: GLP2-2G-5K-EX4 (SEQ ID NO. 18) with staple K5 at positions 9, 16]	1.25 nM	
HGDGSFSDK[Nle]NTILDKLAARDFINWLIQTKITDPSSGAPPPS (linker 9-16 via K5; reading uncertain) [Conjugate 24: GLP2-2G-10Nle-5K-EX4 (SEQ ID NO. 19) with staple K5 at positions 9, 16]	8.36 nM	
HGDGSFSDEMNTILDNXAARDFIXWLIQTKITDPSSGAPPPS (Orn at 17 and 24; staple K5 attached at positions 17, 24 (ornithines)) [Conjugate 25: GLP2-2G-1Orn-EX4 (SEQ ID NO. 20) with staple K5 at positions 17, 24]	2.11 nM	
HGDGSFSDELNTILDNCAARDFICWLIQTKITDPSSGAPPPS (linker 17-24 via L5A; reading uncertain) [Conjugate 3: GLP2-2G-10L-1-EX4 (SEQ ID NO. 3) with staple L5A at positions 17, 24]	0.87 nM	
HGDGSFSDE[Aib]NTILDNCAARDFICWLIQTKITDPSSGAPPPS (linker 17-24 via L5A; reading uncertain) [Conjugate 5: GLP2-2G-10Aib-1-EX4 (SEQ ID NO. 5) with staple L5A at positions 17, 24]	8.71 nM	
HGDGSFSDE[Nva]NTILDNCAARDFICWLIQTKITDPSSGAPPPS (linker 17-24 via L5A; reading uncertain) [Conjugate 6: GLP2-2G-10Nva-1-EX4 (SEQ ID NO. 6) with staple L5A at positions 17, 24]	5.74 nM	
HGDGSFSDEVNTILDNCAARDFICWLIQTKITDPSSGAPPPS (linker 17-24 via L5A; reading uncertain) [Conjugate 7: GLP2-2G-10V-1-EX4 (SEQ ID NO. 7) with staple L5A at positions 17, 24]	1.45 nM	
